# B1: HoxA11-V5/His fusion protein (natural protein)
# chain: not shown
# Molecular target: N-terminal Flag tagged human FOXO1A (human, UniProt Q12778 1-655)
# Test: cell-based or functional assay
# Sequence of N-terminal Flag tagged human FOXO1A (Q12778 whole entry): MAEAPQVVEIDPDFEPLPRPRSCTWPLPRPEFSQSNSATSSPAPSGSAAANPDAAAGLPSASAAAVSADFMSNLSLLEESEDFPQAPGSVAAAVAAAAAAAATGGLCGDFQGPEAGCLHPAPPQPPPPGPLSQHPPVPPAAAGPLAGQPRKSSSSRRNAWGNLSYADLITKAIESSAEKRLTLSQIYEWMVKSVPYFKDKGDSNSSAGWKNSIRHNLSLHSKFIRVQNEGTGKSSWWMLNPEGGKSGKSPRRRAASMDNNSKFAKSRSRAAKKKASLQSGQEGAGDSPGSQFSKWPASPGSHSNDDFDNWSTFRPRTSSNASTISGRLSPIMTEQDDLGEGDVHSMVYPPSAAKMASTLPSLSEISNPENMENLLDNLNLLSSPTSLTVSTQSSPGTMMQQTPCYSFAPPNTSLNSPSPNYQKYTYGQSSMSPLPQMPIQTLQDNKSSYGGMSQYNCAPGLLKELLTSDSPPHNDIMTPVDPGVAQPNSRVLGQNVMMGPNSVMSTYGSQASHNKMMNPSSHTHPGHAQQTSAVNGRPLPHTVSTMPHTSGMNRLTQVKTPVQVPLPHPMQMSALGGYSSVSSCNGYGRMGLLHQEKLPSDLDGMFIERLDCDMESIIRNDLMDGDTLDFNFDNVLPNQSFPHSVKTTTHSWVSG
binder,measurement,value
B1,"luciferase expression from the dPRL-332/luc3 decidual PRL enhancer reporter in HeLa cells cotransfected with HoxA-11 and FOXO1A, fold change relative to empty expression vector",> 3 fold

# Reference: PMC2731163, “HoxA-11 and FOXO1A Cooperate to Regulate Decidual Prolactin Expression: Towards Inferring the Core Transcriptional Regulators of Decidual Genes” (PLoS ONE, 2009)
